In the supplement of paper PMC12042874 one finds amyloid nucleation score data, which are given here for 140 substances.

The nature of this data set: amyloid nucleation score (Sup35N fusion, yeast selection) (log enrichment); library NNK1; higher = more nucleation; inactive = no reads after selection. Summed up: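 Nucleation score: DiMSum log enrichment of output over input reads, centred on the mode score of non-aggregating sequences. Only sequences with at least 100 input reads were kept. Reads came from Illumina sequencing of plasmid inserts before and after 7 days of growth at 30°C without adenine and uracil, in psi-negative yeast expressing Sup35N fused to peptides of 20 random codons after 24 hours of induction with 100 μM copper sulfate.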

± gives the uncertainty stated by the source.

Take VMHLWLVYCHTTVS: the amyloid nucleation score stood at 0.755 ± 0.73.
To RQMRPLGRGPS belongs -0.169 ± 0.84.
With VSGLAGPEM the figure was 0.412 ± 0.56; with RNLWGCMIWGMRG, 1.83 ± 0.36; with WDKFC, -1.16 ± 0.88.
In the case of ITAWWQVSL, the amyloid nucleation score came to 0.565 ± 0.36.
Take MRAEVALFCGNSASVVCGAW: the amyloid nucleation score was -0.221 ± 0.34.
With NLSSTEYAFNISDGEKRHED the figure was 0.186 ± 0.9; with GDRRLSVLGPYMARSVWGER, -0.242 ± 0.31.
For the substance YFEFSIHSQRYIQWSHYLVL, the amyloid nucleation score is -1.05 ± 1.7.
With TGDLGRTGKVTLGTLEDSKI the figure was -0.694 ± 0.56; with SGSRGMFSKCVDK, 1.86 ± 0.1.
The substance TFHNSYLYGTRNVWMLYSVR yielded an amyloid nucleation score of 3.47 ± 0.091.
With KCWLHCWWTVNKTLRYAVRS the figure was -0.531 ± 0.47; with GFVGFTGF, 0.308 ± 0.77; with CHLTMIMNLVIMMAWNPLHC, 0.765 ± 0.47.
For CPLRIIQLMCTNRGLMGRLG, the amyloid nucleation score was -0.071 ± 0.31.
For WETWYSVCYAIEIRSYKIRV, the amyloid nucleation score was -1.3 ± 1.
To EIVACSWKKELIRAW belongs -0.209 ± 0.38.
With TTCSVVRDFYSLIFCTKCPY the figure was 4.03 ± 0.063; with INLVTKYHLSITCSHSCQA, 7.204 ± 0.05.
With YHDVRLMVRVHVFWLF the figure was 1.03 ± 0.37.
As for SGMYRTNTAMFSFYDTTIVI, the amyloid nucleation score is -0.091 ± 0.84.
Consider MLGLWIVARLVLSVDSQRVE, for which the amyloid nucleation score entry is “inactive”.
To YYASVTYFILYSHRIELVVR belongs 1 ± 0.65; to SPIVGTLFYFMLWNMSAHTR, 1.96 ± 0.26.
With DIGLREFNWVTNITTLPQLG the figure was 1.33 ± 0.61; with CLFLIKKHVNNDMGSVRRLS, 0.317 ± 0.71.
To SFAVCGKLDHWCPCSAITLV belongs 1.08 ± 0.64; to MRNYGILFPYLFYMSVSRVL, -0.067 ± 1.7.
RGCRSCAFLIPGLVLCWWKE registered an amyloid nucleation score of 0.069 ± 0.62.
In the case of LLHGGY, the amyloid nucleation score is -1.86 ± 2.4.
For the substance YATDCLLVSFGTSGECIHRL, the amyloid nucleation score entry was “inactive”.
To SFSGYMLDCGEHTQMYSASI belongs 0.185 ± 0.35; to TIRARMVCLNCQMVR, 3.54 ± 0.079; to YVLRSAMACLCDCVCESCGG, 2.71 ± 0.12.
Consider YFAVWSSRDTFRFYLILINP, for which the amyloid nucleation score was -0.427 ± 0.33.
To IYAGHRQHGAV belongs -0.386 ± 0.55.
With GQKVMIAHGTQETIHGGCCG the figure was -0.275 ± 0.49.
To WLLREIERMDLGDWQLELNI belongs -0.707 ± 0.83; to IVFLVLRTANRMWNDYHAS, -0.075 ± 0.33; to VRDSGRIGMFKMGKV, -0.824 ± 0.88.
With VVLPWSFIWRCGVERQ, the amyloid nucleation score is -0.812 ± 0.42.
To RKEISGLMVLLEANLVTWFV belongs -0.085 ± 0.3; to VLGRITAIFSVCGLVAVRDN, 5.63 ± 0.076.
To LLLRSAAESRVSLDEEARGT belongs 0.191 ± 0.64.
As for WLTKSEN, the amyloid nucleation score is -0.151 ± 0.27.
As for CQSVFRGTIHS, the amyloid nucleation score is -0.235 ± 0.55.
With VRRIAWSNGWCRGIGGRSVL the figure was -0.179 ± 0.39; with MVRWFWVVGHQVFTYVRLWR, -0.076 ± 0.74; with HHMRCLGTLNNLCKCCFEER, 3.41 ± 0.11.
To VSRTCIQYCDDDDRSKSRSS belongs 0.253 ± 0.23; to EYIYNIAEWVD, -1.05 ± 0.79; to GGDRGHMFGMKSATVRWLAY, 0.572 ± 0.45.
To VVMYRALTNHN belongs 0.949 ± 0.59.
YSTYLSS: the amyloid nucleation score is 1.4 ± 0.66.
Turning to LMYPSGQSKRWIYRLYMGYR, the amyloid nucleation score entry is “inactive”.
Substance PAYRRCRPFFVHAHRFMGST yielded an amyloid nucleation score of 0.681 ± 0.44.
With VWFFQNNVNFSDKQ the figure was 8.011 ± 0.045; with IFYLRFPVLLVISPRCALYI, 0.623 ± 0.75.
With YFGSLYERGRIIGRRVMR the figure was 0.267 ± 0.32; with VVIVN, 0.439 ± 0.47; with RARQNAFREW, -0.301 ± 0.35.
To LFAPPYLLAVMEE belongs 0.97 ± 0.72; to CHYMSHSSWHSWTNRVMRDM, 0.531 ± 0.29; to FADIKYLSTFG, -0.045 ± 0.37.
The substance LRRLTTVAGIVIAVTSEDDT had an amyloid nucleation score of 0.595 ± 0.73.
To CSQLLKLTQSAYLFFVNQDS belongs 0.676 ± 0.52; to IYINVP, 0.764 ± 0.38; to YINTGVLYFGFCGL, 7.117 ± 0.06.
Substance YFSWLFPFIDLSRVSASMPT showed an amyloid nucleation score of 2.69 ± 0.2.
With LWMYYESFF the figure was 0.843 ± 0.6.
For the substance YLCRRT, the amyloid nucleation score is 0.675 ± 0.63.
To FTMLYSVYPSGRPGSQSGR belongs 1.92 ± 0.21; to FYCVDN, 0.547 ± 0.65.
With HYYANSGVCSTSVNLFRLGS the figure was 6.529 ± 0.049; with INMLTWGWELILSGSSVYED, -0.151 ± 0.41; with YAKVLTK, -0.104 ± 0.33.
With LVILRGLGPDSCYYC the figure was -0.248 ± 0.86.
As to IVFNIYLILAKWWVTVTYSD, the amyloid nucleation score is -1.25 ± 0.5.
Turning to CAKGGPSGYKN, the amyloid nucleation score is -1.41 ± 0.98.
To DSMSRREQG belongs -0.437 ± 0.73; to FRKCVGAQGGSGSWNGCPSE, 1.99 ± 0.23.
To SWFNISAVLENMGRYS belongs 0.26 ± 0.44; to NVWIYPDSMKSNQTDLG, 1.26 ± 0.74.
WAVGVRSQLWVARQAKVMGG returned an amyloid nucleation score of 0.741 ± 0.69.
With VILECNVAGVGELAQCQCAG, the amyloid nucleation score was found to be 0.986 ± 0.59.
To RLYKN belongs 0.161 ± 0.9; to YCTTAIGSKSLVDIWHAGCS, -0.412 ± 1.2; to FMLSFDTTFPLKVLIRTSPE, -0.858 ± 0.85.
With CSVMSNARRIWDRMQLNGVK the figure was -0.568 ± 0.33; with QYRRVSILSSVLLYCPNYCQ, -1.38 ± 2.7; with YSYNRSIASFFYFMSYCVSL, “inactive”.
With VQIFEKLVQRSSVRQSENLK the figure was 0.037 ± 0.93; with VWRHGHNELRIRYAVSLYM, 0.608 ± 0.46.
In turn, SVTWSYVTHLLLWLFGGAGL returned an amyloid nucleation score of 0.848 ± 0.76.
For the substance FSPFLIMVSESPFHPIPELR, the amyloid nucleation score was -0.991 ± 2.4.
To GMLISTSIMHNES belongs 0.164 ± 0.4; to RALAVSRMRAYPSLRGEYLN, 0.076 ± 1.2.
With SMVLFGRISWIGEVLLL the figure was 4.99 ± 0.089; with RWTEKGK, -0.332 ± 1.9; with MVKYPVTKNSSLPCSTRLTF, 1.01 ± 0.47.
With FCSRTRMTICVLCYIHLQGR the figure was 0.521 ± 0.29.
Regarding LIFMMDEVMYNGVSCFVRRE, the amyloid nucleation score is 0.136 ± 0.69.
To SLSAPLNTLVFVVYIQWWEM belongs 0.321 ± 0.71; to MNDVNLFMEYNKSFYVDFYM, 1.61 ± 0.15.
With SACGVIRRLSAGYNCFYVK the figure was 0.229 ± 0.51; with TVLNFKAQYRSSPMLAH, 0.862 ± 0.39; with VINCNWKFSFFFALVNEGGV, 6.554 ± 0.048.
To ASRYGSLVPRVVKHLMTRGN belongs -1 ± 0.67; to IHKAKISWFLCYMLDDT, 0.097 ± 0.33.
With MRLTNGSCHFVLF, the amyloid nucleation score is -0.745 ± 1.7.
Take HCINGCYNSEDVIIVDLLAF: the amyloid nucleation score entry was “inactive”.
On to HSFMYKENAGMSGTLR, for which the amyloid nucleation score turned out to be 0.187 ± 0.48.
For RRRYSC, the amyloid nucleation score was -0.307 ± 0.42.
Turning to SLRMLCRLPSRKDRSWTDML, the amyloid nucleation score is 0.6 ± 0.32.
With MLCFSLVYNGREGYEINLLH the figure was -0.552 ± 0.31; with QSFSKKEESYILYITRVHEP, 0.88 ± 0.69; with TLFPVRNTMMFLESYS, -0.742 ± 0.41.
Turning to RLNHEFFGYKRKTKLAGGLR, the amyloid nucleation score was -0.107 ± 1.2.
With WKFALSLTRSDWAGHGPGHE, the amyloid nucleation score was 2.02 ± 0.16.
Consider LCLDVLSGLCYFYLQ, for which the amyloid nucleation score is 0.622 ± 0.59.
With DDLSGRRELTLRQT the figure was 0.618 ± 0.49.
For YMVSCYLAGNQDSVVCSVKW, the amyloid nucleation score amounted to 2.23 ± 0.18.
With PFCSGALLARLG, the amyloid nucleation score was 0.047 ± 0.77.
To KLFGTAYS belongs -0.847 ± 0.96.
In the case of YNSFKAVNPLKVGLVYMLKL, the amyloid nucleation score was found to be 0.021 ± 0.55.
With SVVRNESNSLVH the figure was 0.065 ± 0.28.
With IASMSVFPSHMCFVGTSTVR the figure was -0.417 ± 0.34; with GLSWGIFALDTRSPGILRSV, -0.436 ± 0.35.
To NSVWHGLYCSQQRSLRTTRL belongs 0.116 ± 0.29.
PKVWGGIHYFHFVTEYSTIS yielded an amyloid nucleation score of 0.309 ± 0.29.
With VAWSPLRSSKPGTLSTVGDT the figure was 0.83 ± 1.1; with GLGTAYIGLCWHTIWHAAGV, 1.46 ± 0.16; with TRLCWFWFNA, 0.066 ± 0.41.
To PSSNLRFFTLNFAFLVPISS belongs -0.521 ± 0.64.
To SCVRCQLS belongs 7.454 ± 0.05.
EDNWHLRVQ registered an amyloid nucleation score of 0.088 ± 0.29.
To SGFAVLKIVMAFHLTLEHQF belongs 0.479 ± 0.67.
With SVYVGRGHFLQKFRRLLRFE the entry was “inactive”.
